Data as given in patent US6583108B1, “Human bikunin” (Bayer Corporation, dated 2003).
Where two headings read alike, the source gives them in different places.

How the values were obtained:
Factor XIa [1] = assay: enzyme inhibition kinetics, E(OBz)AR-AMC substrate
bovine trypsin (bovine) [2] = biological target: bovine trypsin (bovine) (UniProt P00760)
Factor XIa [3] = assay: enzyme inhibition kinetics
Factor XIIa = assay: enzyme inhibition kinetics; first preparation of bikunin (7-64)
bovine trypsin (bovine) [4] = biological target: bovine trypsin (bovine) (UniProt P00760); remark: listed apart in the source
bovine trypsin (bovine) [5] = biological target: bovine trypsin (bovine) (UniProt P00760); remark: listed apart in the source
Factor XIa [6] = assay: enzyme inhibition kinetics; Sf9-derived bikunin (1-170)
[7] = biological target: bovine pancreatic kallikrein (bovine); assay: as above
Tissue Factor VIIa = assay: as above
bovine trypsin (bovine) [8] = biological target: bovine trypsin (bovine) (UniProt P00760); remark: listed apart in the source
bovine trypsin (bovine) [9] = biological target: bovine trypsin (bovine) (UniProt P00760); remark: listed apart in the source
[10] = biological target: bovine pancreatic kallikrein (bovine); assay: enzyme inhibition kinetics; first preparation of bikunin (7-64)
[11] = biological target: human neutrophil elastase (human, UniProt P08246); assay: as above

Sequence of bovine trypsin (bovine) (P00760 24-246): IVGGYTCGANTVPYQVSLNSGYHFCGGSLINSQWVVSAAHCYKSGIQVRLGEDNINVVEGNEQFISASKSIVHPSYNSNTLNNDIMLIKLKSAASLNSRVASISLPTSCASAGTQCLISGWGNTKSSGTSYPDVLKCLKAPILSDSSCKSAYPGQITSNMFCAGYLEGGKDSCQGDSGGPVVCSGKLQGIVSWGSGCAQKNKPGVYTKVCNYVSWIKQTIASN

synthetic placental bikunin (102-159) gave a Ki (Factor XIa [1]) of 15 nM, a trypsin inhibitory activity, specific activity (U/mg) of the purified refolded peptide (bovine trypsin (bovine) [2]) of 300000 U/mg and a Ki (Factor XIa [3]) of 15 nM.

With synthetic placental bikunin (7-64) the Ki (Factor XIIa) was > 300 nM.

“recombinant placental bikunin (102-159) expressed in yeast SC101 (construct #1)” showed an inhibition of trypsin by yeast culture supernatant (applysate) (bovine trypsin (bovine) [4]) of 82%.

B1: placental bikunin 101-159 expressed in yeast (construct #3) (protein)
chain: NYEEYCTANAVTGPCRASFPRWYFDVERNSCNNFIYGGCRGNKNSYRSEEACMLRCFRQ
In the case of B1, the inhibition of trypsin by yeast culture supernatant (applysate) (bovine trypsin (bovine) [4]) is reported as 25%.

B2: native human placental bikunin isolated from human placenta (protein)
chain: ADRERSIHDFCLVSKVVGRCRASMPRWWYNVTDGSCQLFVYGGCDGNSNNYLTKEECLKKCATVTENATGDLATSRNAADSSVPSAPRRQDSEDHSSDMFNYEEYCTANAVTGPCRASFPRWYFDVERNSCNNFIYGGCRGNKNSYRSEEACMLRCFRQQENPPLPLGSK
modifications: probably glycosylated at the asparagine residue at position 30
Work on B2 yielded a trypsin inhibitory activity (Units/OD 280) after Superdex 75 (bovine trypsin (bovine) [5]) of 24500 Units/OD 280.

B3: recombinant placental bikunin (1-170) from baculovirus/Sf9 expression (protein)
chain: B2 chain
modifications: probably glycosylated at the asparagine residue at position 30
Molecule B3 has a Ki (Factor XIa [6]) of 3 nM, a Ki [7] of 0.12 nM and a Ki (Tissue Factor VIIa) of 800 nM. The trypsin inhibitory activity, specific activity (U/OD) after C18 reverse-phase (bovine trypsin (bovine) [8]) was 72200 U/OD.

B4: placental bikunin 98-159 expressed in yeast (construct #4) (protein)
chain: DMFNYEEYCTANAVTGPCRASFPRWYFDVERNSCNNFIYGGCRGNKNSYRSEEACMLRCFRQ
With B4 the inhibition of trypsin by yeast culture supernatant (applysate) (bovine trypsin (bovine) [4]) was 93%.

B5: synthetic placental bikunin (7-64) (other)
chain: IHDFCLVSKVVGRCRASMPRWWYNVTDGSCQLFVYGGCDGNSNNYLTKEECLKKCATV
For B5, the trypsin inhibitory activity, specific activity (U/mg) of the purified refolded peptide (bovine trypsin (bovine) [9]) was 294000 U/mg, the Ki [10] was 0.4 nM and the Ki [11] was > 100 nM.
